The text below walks through data of US20200025759A1 (PANASONIC INTELLECTURAL PROPERTY MANAGEMENT, published 2020).

One may read the Kd as the concentration at which binding is half-saturated.

Assay [1] concerns the target recombinant nucleoprotein (NP) protein derived from influenza virus H1N1 to which a Flag tag was fus (influenza virus H1N1).
The target in assay [2] is intranuclear protein derived from type-A influenza virus H1N1 (A/Puerto Rico/8/34/Mount Sinai) (type-A influenza virus H1N1 (A/Puerto …, UniProt P03466 1-498)). As to the kind of experiment: ELISA, virus solution immobilized on plate, anti-His-HRP detection.
Chain of intranuclear protein derived from type-A influenza virus H1N1 (A/Puerto Rico/8/34/Mount Sinai) (type-A influenza virus H1N1 (P03466 whole entry): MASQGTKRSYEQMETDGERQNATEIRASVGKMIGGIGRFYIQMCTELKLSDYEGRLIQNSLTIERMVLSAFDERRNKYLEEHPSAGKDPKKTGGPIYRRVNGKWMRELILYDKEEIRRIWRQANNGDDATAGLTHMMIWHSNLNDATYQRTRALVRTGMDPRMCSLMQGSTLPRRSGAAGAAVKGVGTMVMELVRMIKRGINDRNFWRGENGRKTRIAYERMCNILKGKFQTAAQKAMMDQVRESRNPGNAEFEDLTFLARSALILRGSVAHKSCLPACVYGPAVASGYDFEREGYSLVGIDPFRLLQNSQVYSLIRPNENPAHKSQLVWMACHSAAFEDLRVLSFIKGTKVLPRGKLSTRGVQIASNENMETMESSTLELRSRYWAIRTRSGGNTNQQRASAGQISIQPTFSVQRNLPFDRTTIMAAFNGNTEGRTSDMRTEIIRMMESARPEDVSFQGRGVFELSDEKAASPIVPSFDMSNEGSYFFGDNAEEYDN
Assay [3] concerns the target intranuclear protein derived from type-A influenza virus H11N6 (A/duck/England/1/1956) (type-A influenza virus H11N6 …, UniProt P26062 1-498). The assay is described as above.
For assay [4], the target named is intranuclear protein derived from type-A influenza virus H7N7 (A/seal/Massachusetts/1/1980) (type-A influenza virus H7N7 …, UniProt P26053 1-498). The assay is described as above.
Chain of intranuclear protein derived from type-A influenza virus H7N7 (A/seal/Massachusetts/1/1980) (P26053 whole entry): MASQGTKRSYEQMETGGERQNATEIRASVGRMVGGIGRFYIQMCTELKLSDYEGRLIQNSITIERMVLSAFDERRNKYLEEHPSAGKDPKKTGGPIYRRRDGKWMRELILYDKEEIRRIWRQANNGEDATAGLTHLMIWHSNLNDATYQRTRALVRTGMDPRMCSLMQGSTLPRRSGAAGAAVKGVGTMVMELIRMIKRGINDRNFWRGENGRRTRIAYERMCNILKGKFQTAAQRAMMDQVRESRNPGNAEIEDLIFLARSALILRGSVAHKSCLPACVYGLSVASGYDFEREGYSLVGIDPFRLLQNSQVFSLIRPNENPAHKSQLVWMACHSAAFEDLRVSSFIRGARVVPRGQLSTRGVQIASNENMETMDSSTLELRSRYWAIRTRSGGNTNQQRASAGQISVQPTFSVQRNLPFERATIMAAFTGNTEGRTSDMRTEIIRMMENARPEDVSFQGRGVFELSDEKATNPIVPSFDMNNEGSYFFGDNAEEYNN
Assay [5] concerns the target recombinant intranuclear protein (SEQ ID NO: 24) derived from a type-A influenza virus H1N1 (A/Puert (type-A influenza virus H1N1 (A/Puerto …, UniProt P03466 1-498))). Kind of assay: phage ELISA on immobilized NP, anti-M13 detection, absorbance at 450 nm. (In general: An ELISA detects its analyte on a solid surface through an enzyme-linked reagent.)

Chain of recombinant intranuclear protein (SEQ ID NO: 24) derived from a type-A influenza virus H1N1 (A/Puert (type-A influenza virus H1N1 (P03466 whole entry): as the sequence (P03466 whole entry) above
Chain of recombinant nucleoprotein (NP) protein derived from influenza virus H1N1 to which a Flag tag was fus (influenza virus H1N1) (P03466 whole entry): as above
Chain of intranuclear protein derived from type-A influenza virus H11N6 (A/duck/England/1/1956) (P26062 whole entry): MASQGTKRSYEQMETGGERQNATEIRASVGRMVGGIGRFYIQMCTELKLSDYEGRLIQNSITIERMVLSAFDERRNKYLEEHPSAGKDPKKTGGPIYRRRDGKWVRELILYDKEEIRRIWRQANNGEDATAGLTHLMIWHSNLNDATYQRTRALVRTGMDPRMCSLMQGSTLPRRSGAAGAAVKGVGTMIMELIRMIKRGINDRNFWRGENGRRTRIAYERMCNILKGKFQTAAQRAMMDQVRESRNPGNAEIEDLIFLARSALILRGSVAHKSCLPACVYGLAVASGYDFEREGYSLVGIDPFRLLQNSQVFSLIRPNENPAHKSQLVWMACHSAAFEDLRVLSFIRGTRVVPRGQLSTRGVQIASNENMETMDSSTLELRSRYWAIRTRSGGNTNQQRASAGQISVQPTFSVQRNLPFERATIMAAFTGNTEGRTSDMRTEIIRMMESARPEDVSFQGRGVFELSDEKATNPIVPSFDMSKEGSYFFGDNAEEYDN

B1: VHH antibody consisting of the amino acid sequence represented by SEQ ID NO: 8 (VHH)
VHH: QVQLVESGGGLVQAGGSLRLSCIASGSIFSPNVMGWYRQAPGKPRELVAAITLGESTNYADSVKGRFTISRSNAENTVYLQMDSLKPEDTAVYYCNAGPILERVGPYWGQGTQVTVSS
In the case of B1, the Kd in assay [1] turned out to be 0.826 nM. Moreover, the binding result in assay [2], in assay [3] and in assay [4] was “binds” throughout.

B2: phage-displayed VHH antibody (protein synthesized from the DNA sequence represented by SEQ ID NO: 18, i.e. SEQ ID NO: 8) (VHH)
VHH: B1 VHH
Consider B2, for which the binding result in assay [5] is “binds”.
